# Earlier results as cited in publication PMC4754043 (Human Molecular Genetics, 2015).
# B1: mt-ValRS: mt-valyl-tRNA synthetase (protein, UniProt Q5ST30 27-1063, looked up)
# Valine--tRNA ligase, …: SVSTQSEPHGSPISRRNREAKQKRLREKQATLEAEIAGESKSPAESIKAWRPKELVLYEIPTKPGEKKDVSGPLPPAYSPRYVEAAWYPWWVREGFFKPEYQARLPQATGETFSMCIPPPNVTGSLHIGHALTVAIQDALVRWHRMRGDQVLWVPGSDHAGIATQAVVEKQLWKERGVRRHELSREAFLREVWQWKEAKGGEICEQLRALGASLDWDRECFTMDVGSSVAVTEAFVRLYKAGLLYRNHQLVNWSCALRSAISDIEVENRPLPGHTQLRLPGCPTPVSFGLLFSVAFPVDGEPDAEVVVGTTRPETLPGDVAVAVHPDDSRYTHLHGRQLRHPLMGQPLPLITDYAVQPHVGTGAVKVTPAHSPADAEMGARHGLSPLNVIAEDGTMTSLCGDWLQGLHRFVAREKIMSVLSEWGLFRGLQNHPMVLPICSRSGDVIEYLLKNQWFVRCQEMGARAAKAVESGALELSPSFHQKNWQHWFSHIGDWCVSRQLWWGHQIPAYLVVEDHAQGEEDCWVVGRSEAEAREVAAELTGRPGAELTLERDPDVLDTWFSSALFPFSALGWPQETPDLARFYPLSLLETGSDLLLFWVGRMVMLGTQLTGQLPFSKVLLHPMVRDRQGRKMSKSLGNVLDPRDIISGVEMQVLQEKLRSGNLDPAELAIVAAAQKKDFPHGIPECGTDALRFTLCSHGVQAGDLHLSVSEVQSCRHFCNKIWNALRFILNALGEKFVPQPAEELSPSSPMDAWILSRLALAAQECERGFLTRELSLVTHALHHFWLHNLCDVYLEAVKPVLWHSPRPLGPPQVLFSCADLGLRLLAPLMPFLAEELWQRLPPRPGCPPAPSISVAPYPSACSLEHWRQPELERRFSRVQEVVQVLRALRATYQLTKARPRVLLQSSEPGDQGLFEAFLEPLGTLGYCGAVGLLPPGAAAPSGWAQAPLSDTAQVYMELQGLVDPQIQLPLLAARRYKLQKQLDSLTARTPSEGEAGTQRQQKLSSLQLELSKLDKAASHLRQLMDEPPAPGSPEL
# Tested on: human transmitochondrial cybrid cells and yeast with mt-tRNA mutations
# Details: human cybrids and yeast; ref [9],[10],[11]
molecule,measurement,value
B1,rescue of defects due to mutations in non-cognate as well as cognate mt-tRNAs,able to rescue
